Test results reported in IntAct's records for PubMed 23136403.

B1: Catenin alpha-3 (Homo sapiens), Q9UI47-1 (parent)
chain: MSAETPITLNIDPQDLQVQTFTVEKLLEPLIIQVTTLVNCPQNPSSRKKGRSKRASVLLASVEEATWNLLDKGEKIAQEATVLKDELTASLEEVRKESEALKVSAERFTDDPCFLPKREAVVQAARALLAAVTRLLILADMIDVMCLLQHVSAFQRTFESLKNVANKSDLQKTYQKLGKELENLDYLAFKRQQDLKSPNQRDEIAGARASLKENSPLLHSICSACLEHSDVASLKASKDTVCEEIQNALNVISNASQGIQNMTTPPEPQAATLGSALDELENLIVLNPLTVTEEEIRPSLEKRLEAIISGAALLADSSCTRDLHRERIIAECNAIRQALQDLLSEYMNNAGKKERSNTLNIALDNMCKKTRDLRRQLRKAIIDHVSDSFLDTTVPLLVLIEAAKNGREKEIKEYAAIFHEHTSRLVEVANLACSMSTNEDGIKIVKIAANHLETLCPQIINAALALAARPKSQAVKNTMEMYKRTWENHIHVLTEAVDDITSIDDFLAVSESHILEDVNKCIIALRDQDADNLDRAAGAIRGRAARVAHIVTGEMDSYEPGAYTEGVMRNVNFLTSTVIPEFVTQVNVALEALSKSSLNVLDDNQFVDISKKIYDTIHDIRCSVMMIRTPEELEDVSDLEEEHEVRSHTSIQTEGKTDRAKMTQLPEAEKEKIAEQVADFKKVKSKLDAEIEIWDDTSNDIIVLAKNMCMIMMEMTDFTRGKGPLKHTTDVIYAAKMISESGSRMDVLARQIANQCPDPSCKQDLLAYLEQIKFYSHQLKICSQVKAEIQNLGGELIMSALDSVTSLIQAAKNLMNAVVQTVKMSYIASTKIIRIQSPAGPRHPVVMWRMKAPAKKPLIKREKPEETCAAVRRGSAKKKIHPLQVMSEFRGRQIY
partner: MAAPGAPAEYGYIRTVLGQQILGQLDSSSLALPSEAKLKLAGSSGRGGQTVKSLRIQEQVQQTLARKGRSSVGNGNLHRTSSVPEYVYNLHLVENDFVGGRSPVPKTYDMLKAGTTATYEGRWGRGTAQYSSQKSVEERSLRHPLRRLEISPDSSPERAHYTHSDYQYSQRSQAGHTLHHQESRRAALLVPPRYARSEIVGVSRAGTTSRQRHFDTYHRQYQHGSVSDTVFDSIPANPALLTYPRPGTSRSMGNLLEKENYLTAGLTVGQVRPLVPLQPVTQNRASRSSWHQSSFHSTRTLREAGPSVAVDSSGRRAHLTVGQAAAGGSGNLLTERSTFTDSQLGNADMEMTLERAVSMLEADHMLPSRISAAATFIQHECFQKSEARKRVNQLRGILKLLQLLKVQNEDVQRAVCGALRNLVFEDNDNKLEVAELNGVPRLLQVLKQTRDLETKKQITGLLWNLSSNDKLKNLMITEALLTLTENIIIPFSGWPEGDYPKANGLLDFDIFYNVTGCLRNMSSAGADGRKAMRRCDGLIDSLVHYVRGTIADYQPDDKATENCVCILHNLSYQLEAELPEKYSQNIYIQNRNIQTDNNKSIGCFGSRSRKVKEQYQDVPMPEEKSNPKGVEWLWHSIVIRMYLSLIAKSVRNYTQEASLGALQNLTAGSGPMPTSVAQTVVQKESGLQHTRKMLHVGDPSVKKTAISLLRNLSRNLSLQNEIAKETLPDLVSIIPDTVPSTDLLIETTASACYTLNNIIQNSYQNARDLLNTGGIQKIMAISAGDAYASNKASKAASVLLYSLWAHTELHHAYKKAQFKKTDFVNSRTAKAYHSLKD
B2: Catenin alpha-3 (Homo sapiens), Q9UI47-1 (parent)
chain: B1 chain
partner: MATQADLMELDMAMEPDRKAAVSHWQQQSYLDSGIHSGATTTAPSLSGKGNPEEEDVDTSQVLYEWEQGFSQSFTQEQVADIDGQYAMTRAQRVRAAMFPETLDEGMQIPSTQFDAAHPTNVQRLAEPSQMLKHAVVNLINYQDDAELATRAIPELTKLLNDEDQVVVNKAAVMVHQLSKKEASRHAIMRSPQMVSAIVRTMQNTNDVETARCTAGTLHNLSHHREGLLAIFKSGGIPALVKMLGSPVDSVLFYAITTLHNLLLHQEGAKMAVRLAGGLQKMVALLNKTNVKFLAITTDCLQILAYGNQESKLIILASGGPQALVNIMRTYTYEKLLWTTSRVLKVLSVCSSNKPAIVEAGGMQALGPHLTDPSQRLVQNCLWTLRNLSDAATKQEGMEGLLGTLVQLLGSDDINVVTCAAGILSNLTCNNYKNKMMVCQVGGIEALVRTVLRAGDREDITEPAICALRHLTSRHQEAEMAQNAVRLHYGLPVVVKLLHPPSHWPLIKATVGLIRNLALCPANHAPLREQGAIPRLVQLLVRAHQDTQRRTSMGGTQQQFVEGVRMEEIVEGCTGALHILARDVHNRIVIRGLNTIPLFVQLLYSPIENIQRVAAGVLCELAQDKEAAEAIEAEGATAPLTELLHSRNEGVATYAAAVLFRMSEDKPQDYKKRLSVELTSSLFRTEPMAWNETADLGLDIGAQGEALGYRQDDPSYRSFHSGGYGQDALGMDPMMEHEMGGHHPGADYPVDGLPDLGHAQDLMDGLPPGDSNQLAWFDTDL
B3: Catenin alpha-3 (Homo sapiens), Q9UI47-1 (parent)
chain: B1 chain
B4: Catenin alpha-3 (Homo sapiens), Q9UI47-1 (parent)
chain: B1 chain
partner: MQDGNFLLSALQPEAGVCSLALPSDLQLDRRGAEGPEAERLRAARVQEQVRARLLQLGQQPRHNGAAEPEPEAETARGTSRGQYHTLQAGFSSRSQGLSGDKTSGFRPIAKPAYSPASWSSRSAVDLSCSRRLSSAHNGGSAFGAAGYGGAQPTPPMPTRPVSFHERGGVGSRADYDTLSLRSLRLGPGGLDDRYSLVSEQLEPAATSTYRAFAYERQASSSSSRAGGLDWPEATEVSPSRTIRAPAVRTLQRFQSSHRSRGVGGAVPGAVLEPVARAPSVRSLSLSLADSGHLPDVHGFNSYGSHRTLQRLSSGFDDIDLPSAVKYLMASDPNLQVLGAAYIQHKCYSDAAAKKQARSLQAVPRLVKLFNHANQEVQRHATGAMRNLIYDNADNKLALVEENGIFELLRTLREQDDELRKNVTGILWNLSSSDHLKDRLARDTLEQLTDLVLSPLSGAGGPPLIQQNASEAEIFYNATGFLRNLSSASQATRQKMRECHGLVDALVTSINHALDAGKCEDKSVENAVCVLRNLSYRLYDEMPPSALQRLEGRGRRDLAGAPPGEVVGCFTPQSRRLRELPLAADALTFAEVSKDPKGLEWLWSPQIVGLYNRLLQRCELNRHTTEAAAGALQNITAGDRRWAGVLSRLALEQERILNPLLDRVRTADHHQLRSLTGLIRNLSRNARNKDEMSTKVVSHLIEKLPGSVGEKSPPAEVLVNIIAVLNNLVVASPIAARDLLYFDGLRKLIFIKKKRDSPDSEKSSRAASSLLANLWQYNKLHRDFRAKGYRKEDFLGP
B5: Catenin alpha-3 (Homo sapiens), Q9UI47-1 (parent)
chain: B1 chain
partner: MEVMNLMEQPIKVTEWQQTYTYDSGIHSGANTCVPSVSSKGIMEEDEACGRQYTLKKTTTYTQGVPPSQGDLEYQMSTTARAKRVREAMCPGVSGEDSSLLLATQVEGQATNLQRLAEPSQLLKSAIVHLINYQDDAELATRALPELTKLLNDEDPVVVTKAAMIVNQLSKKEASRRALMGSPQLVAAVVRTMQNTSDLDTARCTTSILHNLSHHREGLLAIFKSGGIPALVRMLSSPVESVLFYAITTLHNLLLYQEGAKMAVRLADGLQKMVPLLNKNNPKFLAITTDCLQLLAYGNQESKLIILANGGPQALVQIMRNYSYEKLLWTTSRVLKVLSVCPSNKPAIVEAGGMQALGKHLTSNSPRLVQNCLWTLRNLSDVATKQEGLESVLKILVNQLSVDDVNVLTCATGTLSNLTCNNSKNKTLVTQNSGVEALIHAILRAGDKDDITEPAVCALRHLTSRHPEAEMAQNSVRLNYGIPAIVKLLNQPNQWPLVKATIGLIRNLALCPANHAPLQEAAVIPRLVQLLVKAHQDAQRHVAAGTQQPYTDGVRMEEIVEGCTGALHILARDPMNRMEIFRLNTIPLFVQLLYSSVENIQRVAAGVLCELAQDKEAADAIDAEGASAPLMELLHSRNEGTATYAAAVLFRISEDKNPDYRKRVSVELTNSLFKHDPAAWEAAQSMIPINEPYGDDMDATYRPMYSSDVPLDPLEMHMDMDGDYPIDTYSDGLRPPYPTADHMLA

Variants of: B1
Conditions: with PKP2, Q99959-2

| effect of a mutation on the interaction | Variant |
| --- | --- |
| with no effect | V94D |

Variants of: B2
Conditions: with ctnb1_rat Ctnnb1, Q9WU82

| effect of a mutation on the interaction | Variant |
| --- | --- |
| with no effect | V94D |

Variants of: B3
Conditions: with ctnb1_human CTNNB1, P35222

| effect of a mutation on the interaction | Variant |
| --- | --- |
| disrupting interaction strength | V94D |

Variants of: B3
Conditions: with ctnb1_human CTNNB1, P35222
Remark: another data set of the same source

| effect of a mutation on the interaction | Variant |
| --- | --- |
| decreasing interaction strength | V94D |

Variants of: B3
Conditions: with ctnb1_mouse Ctnnb1, Q02248

| effect of a mutation on the interaction | Variant |
| --- | --- |
| disrupting interaction strength | V94D |

Variants of: B4
Conditions: with pkp3_human PKP3, Q9Y446

| effect of a mutation on the interaction | Variant |
| --- | --- |
| with no effect | V94D |

Variants of: B5
Conditions: with plak_human JUP

| effect of a mutation on the interaction | Variant |
| --- | --- |
| disrupting interaction strength | V94D |
